Experimental data from US20040157314A1, “Inhibitors of Staphylococcus aureus primary sigma factor and uses thereof” (priority 2003, published 2004).

Key:
[1] = target: STAAU_R12 with E. coli core and biotinylated λPR oligonucleotide (Staphylococcus aureus, UniProt P0A0J0); format: biochemical; settings: 0 to 4 μM; 32 nM HK-STAAU_R12, 45 nM biotinylated DNA
Method: We developed a fluorescence-based high throughput assay to monitor the interaction of STAAU_R12 with its cognate DNA. […] Europium cryptate (Eu) labeled anti-Histidine was used as an energy donor and Allophycocyanin (APC) labeled streptavidin was used as an energy acceptor.
The reaction was incubated for 15 min at room temperature and then, 6 μl of a mixture of Eu-conjugated anti-Histidine (CIS International) and APC-conjugated streptavidin (Prozyme) were added to final concentrations of 3 and 15 nM, respectively. Samples were mixed and 25 μl of the mixture was transferred to a 96-well opaque plate (Molecular Devices). After 45 min incubation at room temperature, the emission at 665 nm (APC) and at 612 nm (Eu) arising from excitation as 340 nm was measured using a Tecan Ultra™ plate reader. […] A mutated version of untagged λPR oligonucleotide consisting of a substitution of the −35 region (from TTGACT in the wild type PR oligonucleotide to ACTTTG in the mutated oligonucleotide) was used as a non specific competitor. Competitors were added to the reaction mixture prior to addition of Eu and APC conjugates.

[2] = target: T1, reconstituted holoenzyme from HK-STAAU_R12 and S. aureus core enzyme (Staphylococcus aureus, UniProt P0A0J0); assay: In vitro transcription and TCA precipitation assay, 96-well; format: biochemical; settings: 10 μM, FIG. 8
T1 construct: made in house; S. aureus RN4220 transformed with pTMHB rpoA (core enzyme)
Source text: In order to convert this gel-based transcription assay to a 96-well high through put format, we used an in vitro transcription assay followed by a TCA precipitation step in order to separate radiolabeled nucleotides incorporated into nucleic acid from unincorporated label. Such format is convenient as it will allow rapid screening with a large collection of compounds. In this TCA precipitation assay, we reconstituted the holoenzyme from STAAU_R12 and S. aureus core enzyme instead of using the E. coli core enzyme with STAAU_R12.
The E. coli core enzyme (Epicentre) was used as a positive control for monitoring transcription efficiency. The set up of high throughput screening assay for STAAU_R12 is illustrated in FIG. 7. […] UTP (3000 Ci/mmole), 1 U of RNasin (Promega) and 40 ng of pTMSM template DNA (a pTM derivative vector). To investigate the in vitroeffectofG1ORF67 on STAAU_R12 mediated transcriptional activation, G1ORF67 and a negative control (10 μM) were added to the mixture and the reaction was incubated for 1 h at 37° C. in a 96-well PCR-plate (BD-Falcon™). […] After filtration, the wells were washed 3 times (225 μl per wash) with 10% TCA, 2 times (225 μl per wash) with 95% ethanol and then 75 μl of liquid scintillation cocktail was added and the plates were counted for 30 s on a Trilux™ Microbeta counter (Perkin Elmer-Packard).

[3] = tested on: S. aureus RN4220; assay: Growth kinetics assay (CFU) of S. aureus clones expressing phage ORF under arsenite-inducible promoter; format: cell-based, Staphylococcus aureus
Source text: Bacteriophage ORFs encoded in phage G1 genome were identified as follows: beginning at the first nucleotide, the phage G 1 genome sequence is scanned for a start codon. When one is identified, the number of in-frame codons is counted until a termination codon is reached. A minimum threshold of 33 codons defines this bounded sequence as an ORF. This procedure is repeated, starting at the next nucleotide following the last stop codon, until the end of the phage sequence is reached. The scan is performed in an identical manner on all three reading frames of both DNA strands of the phage sequence, in order to identify all the putative ORFs. Putative genes are then identified based on the presence of a Shine-Dalgarno sequence within the 15 nucleotides upstream of the start codon. The E. coli-S. aureus shuttle vector pTOO21 (Tauriainen et al., Appl. Environ. Microbiol. (1997) 63:4456-64), containing the arsenite-inducible ars promoter and the arsR gene, was modified with an optimal Shine-Dalgarno sequence (AGGAGG) followed by a multiple cloning site (MCS). DNA encoding individual phage ORFs was amplified by PCR from phage genomic DNA and cloned into the MCS of the modified vector. […]

[4] = target: E. coli holoenzyme (E. coli sigma factor and E. coli core RNA polymerase) (Escherichia coli, UniProt P00579); settings: pre-incubation with E. coli holoenzyme, FIG. 6C
Method: (§1) The E. coli holoenzyme (Epicentre) was used at 10 nM as a positive control for monitoring transcription efficiency. Assays were done with increasing amounts (0 to 500 nM) of STAAU_R12 and 25 nM of E. coli core in a total volume of 25 μl containing 40 mM Tris-acetate pH 7.9, 100 mM NaCl, 5 mM MgCl2, 1 mM DTT, 0.1 mg/ml BSA, 0.5 mM of each ATP, GTP, CTP, 0.25 mM UTP, 5 μCi [^32P] UTP (3000 Ci/mmole), 2 units of RNasin (Promega) and 40 ng of pB6 template DNA (Lutz and Bujard, Nuc. Acid Res. (1997) 6:1203-10) harboring λPL promoter, kanamycin gene and the Col E1 RNA-1. […] Reactions were incubated at 37° C. for 15 min and stopped by addition of 5 μl of loading buffer (95% formamide, 20 mM EDTA and 0.05% of each xylene cyanol and bromophenol blue). Samples were boiled for 5 min and electrophoresed on a 6% polyacrylamide/8 M urea gel.

[5] = target: holoenzyme reconstituted from STAAU_R12 and E. coli core RNA polymerase (Staphylococcus aureus, UniProt P0A0J0); assay: In vitro transcription assay (polyacrylamide/urea gel), reconstituted holoenzyme; format: biochemical; settings: pre-incubation with STAAU_R12, 0 to 2 μM, FIG. 6B
holoenzyme reconstituted from STAAU_R12 and E. coli core RNA polymerase, sequence (P0A0J0 whole entry): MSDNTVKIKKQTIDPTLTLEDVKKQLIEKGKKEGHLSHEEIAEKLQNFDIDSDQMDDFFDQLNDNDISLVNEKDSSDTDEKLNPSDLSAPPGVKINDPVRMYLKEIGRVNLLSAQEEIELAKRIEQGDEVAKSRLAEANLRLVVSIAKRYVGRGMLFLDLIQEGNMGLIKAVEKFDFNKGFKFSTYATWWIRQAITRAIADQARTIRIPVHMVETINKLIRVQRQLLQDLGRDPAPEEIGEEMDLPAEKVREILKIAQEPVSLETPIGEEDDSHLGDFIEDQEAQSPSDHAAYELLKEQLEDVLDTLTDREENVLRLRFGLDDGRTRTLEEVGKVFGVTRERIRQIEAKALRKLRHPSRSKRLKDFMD
Method: as §1

T1 sequence (P0A0J0 whole entry): as above
STAAU_R12 with E. coli core and biotinylated λPR oligonucleotide, sequence (P0A0J0 whole entry): as above
E. coli holoenzyme (E. coli sigma factor and E. coli core RNA polymerase), sequence (P0A8V2 whole entry): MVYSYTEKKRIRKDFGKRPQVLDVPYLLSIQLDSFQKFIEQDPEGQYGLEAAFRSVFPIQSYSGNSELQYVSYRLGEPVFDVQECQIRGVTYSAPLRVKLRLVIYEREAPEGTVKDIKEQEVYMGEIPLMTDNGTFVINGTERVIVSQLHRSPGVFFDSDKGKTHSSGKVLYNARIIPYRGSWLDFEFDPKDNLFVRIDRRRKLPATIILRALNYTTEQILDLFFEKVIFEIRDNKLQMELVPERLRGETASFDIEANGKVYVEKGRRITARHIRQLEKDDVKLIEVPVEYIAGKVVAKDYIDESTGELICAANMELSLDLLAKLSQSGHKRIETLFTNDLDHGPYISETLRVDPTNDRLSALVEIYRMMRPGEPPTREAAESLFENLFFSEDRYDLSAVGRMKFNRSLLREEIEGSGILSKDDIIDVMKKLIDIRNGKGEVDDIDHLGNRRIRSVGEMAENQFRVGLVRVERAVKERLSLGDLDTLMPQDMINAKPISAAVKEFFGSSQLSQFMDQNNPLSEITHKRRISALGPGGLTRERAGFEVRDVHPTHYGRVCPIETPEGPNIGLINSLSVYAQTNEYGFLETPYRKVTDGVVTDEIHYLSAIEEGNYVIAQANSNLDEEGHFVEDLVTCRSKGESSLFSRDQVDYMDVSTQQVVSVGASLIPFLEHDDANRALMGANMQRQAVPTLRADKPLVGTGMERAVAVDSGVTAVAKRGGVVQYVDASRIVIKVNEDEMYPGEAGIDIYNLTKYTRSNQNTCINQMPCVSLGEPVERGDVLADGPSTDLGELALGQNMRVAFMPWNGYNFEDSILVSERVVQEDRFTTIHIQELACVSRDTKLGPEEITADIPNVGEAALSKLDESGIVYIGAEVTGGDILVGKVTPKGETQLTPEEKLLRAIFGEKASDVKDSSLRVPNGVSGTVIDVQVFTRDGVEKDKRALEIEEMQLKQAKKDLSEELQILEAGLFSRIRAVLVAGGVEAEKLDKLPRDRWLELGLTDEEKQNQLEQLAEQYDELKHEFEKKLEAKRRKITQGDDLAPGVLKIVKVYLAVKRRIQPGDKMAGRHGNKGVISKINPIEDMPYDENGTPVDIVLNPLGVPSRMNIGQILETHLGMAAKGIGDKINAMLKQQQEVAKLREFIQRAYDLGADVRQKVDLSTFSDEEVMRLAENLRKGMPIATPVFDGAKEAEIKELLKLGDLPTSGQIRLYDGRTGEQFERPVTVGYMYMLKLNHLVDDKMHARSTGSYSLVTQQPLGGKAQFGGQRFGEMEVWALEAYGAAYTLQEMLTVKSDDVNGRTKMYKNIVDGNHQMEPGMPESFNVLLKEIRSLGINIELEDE
E. coli holoenzyme (E. coli sigma factor and E. coli core RNA polymerase), sequence (P00579 whole entry): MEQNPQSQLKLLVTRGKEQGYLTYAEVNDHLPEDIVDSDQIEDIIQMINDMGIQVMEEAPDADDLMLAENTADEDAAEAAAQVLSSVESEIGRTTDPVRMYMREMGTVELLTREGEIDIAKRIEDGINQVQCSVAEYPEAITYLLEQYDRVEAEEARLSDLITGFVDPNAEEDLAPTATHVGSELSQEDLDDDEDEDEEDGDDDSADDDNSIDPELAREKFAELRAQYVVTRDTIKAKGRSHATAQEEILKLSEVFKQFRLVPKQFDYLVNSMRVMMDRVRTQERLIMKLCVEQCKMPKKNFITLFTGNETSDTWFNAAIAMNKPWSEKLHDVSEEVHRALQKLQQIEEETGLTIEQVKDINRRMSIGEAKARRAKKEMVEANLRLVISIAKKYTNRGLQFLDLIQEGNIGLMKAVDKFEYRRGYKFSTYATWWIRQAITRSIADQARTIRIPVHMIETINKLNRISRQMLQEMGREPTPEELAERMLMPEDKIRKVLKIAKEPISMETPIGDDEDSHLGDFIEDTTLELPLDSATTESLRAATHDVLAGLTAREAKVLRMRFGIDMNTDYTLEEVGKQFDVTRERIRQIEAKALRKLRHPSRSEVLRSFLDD
E. coli holoenzyme (E. coli sigma factor and E. coli core RNA polymerase), sequence (P0A7Z4 whole entry, further chain): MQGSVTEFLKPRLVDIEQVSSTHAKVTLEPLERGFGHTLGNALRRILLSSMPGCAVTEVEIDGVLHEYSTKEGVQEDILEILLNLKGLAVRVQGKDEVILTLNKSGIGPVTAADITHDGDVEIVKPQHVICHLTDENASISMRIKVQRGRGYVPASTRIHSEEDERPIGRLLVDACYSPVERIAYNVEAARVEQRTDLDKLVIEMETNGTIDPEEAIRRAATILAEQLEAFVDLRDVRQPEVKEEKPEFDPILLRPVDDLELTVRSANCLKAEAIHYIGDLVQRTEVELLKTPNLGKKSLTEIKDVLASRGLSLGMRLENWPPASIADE
E. coli holoenzyme (E. coli sigma factor and E. coli core RNA polymerase), sequence (P0A8T7 whole entry, further chain): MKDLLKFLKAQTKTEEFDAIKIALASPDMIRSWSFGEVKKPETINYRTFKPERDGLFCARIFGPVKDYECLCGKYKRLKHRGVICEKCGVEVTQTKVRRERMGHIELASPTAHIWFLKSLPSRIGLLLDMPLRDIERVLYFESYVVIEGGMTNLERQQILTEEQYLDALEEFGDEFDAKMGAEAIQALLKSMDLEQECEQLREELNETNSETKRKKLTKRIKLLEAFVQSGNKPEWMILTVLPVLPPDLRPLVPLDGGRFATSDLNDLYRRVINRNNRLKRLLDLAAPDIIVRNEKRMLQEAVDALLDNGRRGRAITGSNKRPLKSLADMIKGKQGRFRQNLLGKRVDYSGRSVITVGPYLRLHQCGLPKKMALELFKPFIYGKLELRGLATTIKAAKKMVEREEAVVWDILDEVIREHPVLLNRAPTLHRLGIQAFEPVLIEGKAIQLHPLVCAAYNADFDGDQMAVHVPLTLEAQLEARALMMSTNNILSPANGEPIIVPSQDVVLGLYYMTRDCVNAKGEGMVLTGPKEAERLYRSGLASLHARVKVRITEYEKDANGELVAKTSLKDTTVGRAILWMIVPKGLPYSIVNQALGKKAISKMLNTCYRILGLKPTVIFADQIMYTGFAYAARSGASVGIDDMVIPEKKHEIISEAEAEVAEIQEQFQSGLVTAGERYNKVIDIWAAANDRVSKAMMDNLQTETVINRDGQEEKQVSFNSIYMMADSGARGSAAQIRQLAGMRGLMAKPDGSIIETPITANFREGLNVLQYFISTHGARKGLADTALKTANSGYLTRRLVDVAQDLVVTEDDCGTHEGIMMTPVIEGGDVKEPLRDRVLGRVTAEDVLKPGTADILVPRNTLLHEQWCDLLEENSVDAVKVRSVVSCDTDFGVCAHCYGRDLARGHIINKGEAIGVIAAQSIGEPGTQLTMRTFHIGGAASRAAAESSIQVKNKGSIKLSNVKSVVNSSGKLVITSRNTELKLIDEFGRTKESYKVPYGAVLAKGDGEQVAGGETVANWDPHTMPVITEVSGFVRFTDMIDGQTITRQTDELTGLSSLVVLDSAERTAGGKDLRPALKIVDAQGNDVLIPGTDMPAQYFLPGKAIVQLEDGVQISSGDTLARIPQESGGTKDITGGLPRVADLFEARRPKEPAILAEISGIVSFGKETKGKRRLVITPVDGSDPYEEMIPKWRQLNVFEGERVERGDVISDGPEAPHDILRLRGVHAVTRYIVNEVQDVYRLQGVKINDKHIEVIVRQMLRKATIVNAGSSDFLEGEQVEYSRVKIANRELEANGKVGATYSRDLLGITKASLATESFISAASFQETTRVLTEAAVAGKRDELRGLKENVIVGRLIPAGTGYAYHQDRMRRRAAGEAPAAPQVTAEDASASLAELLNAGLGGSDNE

B1: G1ORF67: 198 amino acids protein from S. aureus bacteriophage G1 (SEQ ID NO: 7), anti-primary sigma factor (protein)
chain: MKLKILDKDNATLNVFHRNKEHKTIDNVPTANLVDWYPLSNAYEYKLSRNGEYLELKRLRSTLPSSYGLDDNNQDIIRDNNHRCKIGYWYNPAVRKDNLKIIEKAKQYGLPIITEEYDANTVEQGFRDIGVIFQSLKTIVVTRYLEGKTEEELRIFNMKSEESQLNEALKESDFSVDLTYSDLGQIYNMLLLMKKISK
modifications: Bacteriophage G1
reduction of the TR-FRET signal (core-dependent DNA binding of STAAU_R12) [1]: 7 fold | inhibition of STAAU_R12 mediated transcriptional activation (TCA precipitation) [2]: dramatic inhibition | number of CFU in cells expressing the ORF ([3]; S. aureus RN4220, induced with 5 μM NaAsO2, FIG. 1): significantly reduced | type of growth inhibitory effect on S. aureus ([3]; expression of the ORF in S. aureus): bacteriostatic | effect on transcription by E. coli holoenzyme [4]: did not affect transcription | inhibition of STAAU_R12-mediated transcriptional activation [5]: dramatic inhibition
